# Variants at the floor of the assay were thinned out.
# B1: TPR 5TU (parent)
# chain: GGAUCUUCUCGAUCUAACAAAAAAGACAAAUCUGCCACAAAGCUUGAGAGCAUCUUCGGAUGCAGAGGCGGCAGCCUUCGGUGGCGCGAUAGCGCCAACGUUCUCAACUAUGACACGCAAAACGCGUGCUCCGUUGAAUGGAGUUUAUCAUG
# Variants of: B1
# Assay: polymerase ribozyme fitness, log enrichment relative to wild type (log ratio); higher = more active; in vitro selection for triplet polymerase activity
# Procedure, shortened: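 A heterodimeric triplet polymerase ribozyme had each of its subunits mutagenized by PCR into a library, which was transcribed. One round of in vitro selection, done in triplicate, annealed each library with a biotinylated primer, its partner subunit and triplets, then incubated it frozen at −7 °C before gel excision of extended constructs, streptavidin-bead capture and RT-PCR. Fitness is the logarithm of genotype enrichment relative to wild-type enrichment, based on Illumina sequencing of inputs and outputs and inverse-variance-weighted replicate averages. A base-2 logarithm is used, and genotypes were kept only with ≥10 input reads and ≥1 read per output.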
row,Variant,polymerase ribozyme fitness (log ratio)
1,C63G A73G G94A G136A,-0.0432
2,U31G C93U C99U C116A A119G A142C,≤ -4.2
3,C43A U44G U45A,≤ -4.2
4,A16G G25A U45C U53A A91C C103G C108U C125U,≤ -4.2
5,A21G C27U C38A C93G U101A U146C,≤ -4.2
6,G11C A20G A47C,-2.54
7,C96U G128U,-3.45
8,G59C C96U,0.681
9,U15C G86A,0.14
10,C5G G68C C131U C132G U145G A150C,≤ -4.2
11,C57G C95U U102G,-2.74
12,A12U G84U G100U,≤ -4.2
13,A52U G59C U101G A122U U144C,-2.67
14,C8U C14G C32A C36G G83A G117C,≤ -4.2
15,U6A C57U A60U C99U U111G G126U C129G,≤ -4.2
16,A3U A147C,-0.51
17,G94A A115U C125U C132U A147U,≤ -4.2
18,A19G G141U,1.06
19,C10U A17G A26U G46C U55A C85U A106U G126A G133C,≤ -4.2
20,U4A G84A C99U U109G A120C G152C,-3.96
21,C18G A24U G50U U53A A73G G92A,≤ -4.2
22,A47C U56A U144C U151G,≤ -4.2
23,U127C,-1.3
24,U55G G83U C85U A89U C95A,-3.88

row,Variant,polymerase ribozyme fitness (log ratio)
1,C14U A16U G81A A147U,-1.35
2,G68A C96A C99U A110G U145C,≤ -4.2
3,G70A C93A C123U,≤ -4.2
4,A30G C123U G133U C149G,≤ -4.2
5,G80A A97G,-1.88
6,C36A G58A G67U G81C C103G A113U U134G G141U,≤ -4.2
7,G46U C87U,-0.944
8,A28U G48C C85A A97U A122G G143A U146C,≤ -4.2
9,A60G G83A,-1.4
10,A26U C85U U146G,-1.93
11,U13A A37G C93U,-3.74
12,A37G G84U U104G C118G,≤ -4.2
13,A3U C5G A29U U31C A41C U55A U56C G84A C87U U111G U135A,≤ -4.2
14,A37C U45G A47C G59A C79G G81C U82C C95U,-4.18
15,C8A G70C A89G G94C C116A A137G,≤ -4.2
16,C38U C85U U127A,-3.87
17,C38G G58C G92U C105G U146C,-2.53
18,A26C A39G G42U A60G U78C C93G G117A,≤ -4.2
19,U4G G50C C118U,≤ -4.2
20,A28G C43G G83U C93A U135G,≤ -4.2
21,G50A C51U U55G G84A G128A C131G U135C,≤ -4.2
22,A12U C14A C114G A119G,-3.37
23,A22C C76A C85A C93U C132A A142U,≤ -4.2
24,C87A U135C,≤ -4.2

row,Variant,polymerase ribozyme fitness (log ratio)
1,U13G C18G A22G C54A G100C C116G A120U A147C,≤ -4.2
2,A19C G58C G88U A98G C103G,≤ -4.2
3,U55G G92U G117A A121U A122U U151G,≤ -4.2
4,U55A C85U C116G G133C,-1.34
5,C38A G92C C93A C125G,≤ -4.2
6,U55A A119G,-1.38
7,U9A G48A G80C C87G A107U A113U,≤ -4.2
8,C54A A64G C76G C93U A138C,≤ -4.2
9,A20C A40U C95U,-0.74
10,A22G G34C C95U A138G,≤ -4.2
11,A39C G42U C43A G92U U127A A150G,-4.19
12,A28C C38A G48C A73G U144C,≤ -4.2
13,C10U A37U C57G G58U C87G G140U U145A,≤ -4.2
14,C96U C105G U144A,-1.81
15,C93A A97G A113G G124U,-4.12
16,A39G U56G A66U G86U A107C,-3.99
17,C18G A21G A23C A40U G70A C79G C87G G117C,≤ -4.2
18,A29G C57G G136U,≤ -4.2
19,C14A A39U C85G G140A,≤ -4.2
20,A28U G48C C75U U90G G117A C129G,≤ -4.2
21,G42A C54G A91U,≤ -4.2
22,G68U C76U,≤ -4.2
23,G11C G46U U55A C87U C93U U127G A138C U145A,≤ -4.2
24,A64C G83C U139C A150C G152U,≤ -4.2

row,Variant,polymerase ribozyme fitness (log ratio)
1,U31A A52C U104G U134G,≤ -4.2
2,A26G G46U A52G C116U G140C G143C,≤ -4.2
3,G65A G70A G94A C116U G143U,≤ -4.2
4,C93A A115G C116U,-2.39
5,A30G A64C A66U C99U U102A G117A U145G,≤ -4.2
6,C75G G81A A122G,≤ -4.2
7,C5A A52C A73U U82C C85U G136U,≤ -4.2
8,A73G A115G G141A,-2.44
9,U127G U145G,≤ -4.2
10,U15C C85U,-0.718
11,C95U C131A C132U,-3.79
12,G83U C114G A115U A119U U134A,≤ -4.2
13,C36G,-3.16
14,A23C U53C G58U G94C A115U C129U,≤ -4.2
15,A21U U33C G42A U45G U53A U90A C96U C114G,-3.87
16,A49G G83C,-1.21
17,C8A U15G G59C C114U A138G,≤ -4.2
18,G11U C18G A21C U31C C57U A91G A113C G143U,≤ -4.2
19,C72U G86A G100C C131A U135A,≤ -4.2
20,G11U G88C,≤ -4.2
21,C18U A52C U145G,-2.09
22,A22U A28U A37U G42C C54A C103A,≤ -4.2
23,A22U C54A G59C A122C G141A,-0.175
24,A52G A60G U77G A91U G133U,≤ -4.2

row,Variant,polymerase ribozyme fitness (log ratio)
1,C35U A60G U102C C116A,-3.97
2,A39G G84A,-1.84
3,G58U G59C U78A C108G U148A,≤ -4.2
4,U127A,-2.94
5,U31A C79U,-2.71
6,A3U A17C C35U G59A C85A,-3.22
7,C76G U144A,≤ -4.2
8,C43G,-4.17
9,G46A C57U G58C C76A C96A U101C A106U,≤ -4.2
10,U55A A60G U102A U148A,-3.91
11,G58U U135G,-3.76
12,G84U C85G C96G,-3.84
13,C14U C36G G71U A122U G124U,≤ -4.2
14,A52C G83U U145A,-1.8
15,A16G C85U,-0.908
16,C75A G86A U104G A106G,≤ -4.2
17,C35U C93U,-1.74
18,U53A G86C A91U G136A,≤ -4.2
19,A19G U102G,-3.38
20,G62U C85U C96U C118U,-1.28
21,C51U C96A A121C U134A,-3.19
22,A39G U144C,-2.67
23,G46A C51A A98G C125U,≤ -4.2
24,A28U G50C,≤ -4.2

row,Variant,polymerase ribozyme fitness (log ratio)
1,C10G C93A A97U C116U,≤ -4.2
2,U15C C85U G92U G141C U144C,-3.03
3,A98G C118A C129A,-2.75
4,A26G A97G,-3.72
5,U4C C76U,-0.762
6,U56A C87U C96U C103G,-3.09
7,C5U C35U U77G C85G A89U A110C U144G,≤ -4.2
8,U82C U101A,0.112
9,A26G C87G U127A C129G,≤ -4.2
10,G34U G58U C87A A98C G143C,≤ -4.2
11,U9C G11A A23U C36U C51A G92C G117C,≤ -4.2
12,G46A G67U C87A C103G U111C G140A,≤ -4.2
13,C35U G68U U90G G117A U144G,≤ -4.2
14,G48C A52C C85G G92C A119U G126A A138U,≤ -4.2
15,A41U C99A A106U C118A A119G U134C,≤ -4.2
16,G25C C57U,-2.94
17,U55G U56A G59C C99G A142G,-2.78
18,A47U A97G C132U,-2.35
19,G59U C69G C95U C116G,-1.81
20,A49C G50C C85A C103U A106G G117U A122U C131U U139G,≤ -4.2
21,C108U,-2.43
22,G83U G128C,-3.55
23,C35U G92A,-3.33
24,C93U C96G,-1.58

row,Variant,polymerase ribozyme fitness (log ratio)
1,A73G C75U U77C A89U G136A C149G,≤ -4.2
2,A29U G68A G81A,≤ -4.2
3,C8G C10A C93U A106U A107U C108U U148G,≤ -4.2
4,C54U C75U,-0.0882
5,A41U C51U C85A A115U A142U,≤ -4.2
6,C36U G48U C96G C103G A121C,-2.74
7,A16C A47C U55A,-2.23
8,A20U A37G A120C A142C,≤ -4.2
9,G50A U145A,-0.516
10,U56A G88C C99U A119G,≤ -4.2
11,A41C G62A G65C A89C C95G U151A,≤ -4.2
12,U9A A28C A64C C72U U78G,≤ -4.2
13,C57U G59A A73G C79U,≤ -4.2
14,A41G C54A U56G C57U G84U C99G U109C U146C,≤ -4.2
15,A60G U104G,0.24
16,C14G U15G A30U A91G,≤ -4.2
17,A17G G42U C51U C96U C108U,≤ -4.2
18,G42A C72U A91U,≤ -4.2
19,C5G A12U C27G A49C C54U U61A C93G C95A A119G U134A A150C,≤ -4.2
20,G34A U56C G126U,-1.64
21,A12G C38U C57G G62A C93A,-2.77
22,C85U A119C,-0.984
23,U6C A21G C27A C54U G80C C87A U109C A147U,≤ -4.2

# Reference: the RNAGym collection of RNA variant scans (doi:10.1073/pnas.2313332121)
